# T1: MtrD, His-tagged (N. gonorrhoeae FA19, UniProt Q51073 1-1067)
# T1 sequence (looked up): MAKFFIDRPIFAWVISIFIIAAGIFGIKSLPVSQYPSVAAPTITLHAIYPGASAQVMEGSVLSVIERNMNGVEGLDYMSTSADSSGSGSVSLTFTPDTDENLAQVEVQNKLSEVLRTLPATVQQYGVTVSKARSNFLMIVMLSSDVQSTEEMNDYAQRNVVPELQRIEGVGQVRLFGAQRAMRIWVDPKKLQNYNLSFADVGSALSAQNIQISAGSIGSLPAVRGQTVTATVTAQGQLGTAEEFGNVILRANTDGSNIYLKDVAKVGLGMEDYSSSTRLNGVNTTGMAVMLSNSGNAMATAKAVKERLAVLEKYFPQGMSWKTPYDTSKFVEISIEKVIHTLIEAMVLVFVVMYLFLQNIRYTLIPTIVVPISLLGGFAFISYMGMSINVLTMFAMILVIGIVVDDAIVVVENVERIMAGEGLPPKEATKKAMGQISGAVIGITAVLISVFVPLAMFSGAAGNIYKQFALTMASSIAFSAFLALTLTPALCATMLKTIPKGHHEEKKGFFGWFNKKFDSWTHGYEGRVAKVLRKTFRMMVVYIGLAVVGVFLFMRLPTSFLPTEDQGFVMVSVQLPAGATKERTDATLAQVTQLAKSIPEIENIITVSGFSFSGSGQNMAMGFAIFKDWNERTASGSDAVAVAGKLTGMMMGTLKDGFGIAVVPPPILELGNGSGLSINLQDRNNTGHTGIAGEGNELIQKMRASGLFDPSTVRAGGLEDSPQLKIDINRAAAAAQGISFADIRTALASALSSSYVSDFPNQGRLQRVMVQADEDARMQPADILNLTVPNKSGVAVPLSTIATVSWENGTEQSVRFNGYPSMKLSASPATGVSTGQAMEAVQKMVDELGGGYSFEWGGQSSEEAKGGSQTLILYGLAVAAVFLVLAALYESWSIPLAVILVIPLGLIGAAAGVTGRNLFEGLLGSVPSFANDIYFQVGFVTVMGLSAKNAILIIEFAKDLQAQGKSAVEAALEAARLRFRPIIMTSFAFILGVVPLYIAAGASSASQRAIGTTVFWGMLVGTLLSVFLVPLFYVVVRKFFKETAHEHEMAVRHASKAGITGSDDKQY
# B1: MtrC α-helical coiled-coil hairpin domain (residues 103–183), His-tagged (domain or fragment)
# chain: IDSSTYEAGLESARAQLATAQATLAKADADLARYKPLVSADAISKQEYDAAVTAKRSAEASVKAAQAAIKSAGINLNRSRI
# B2: NT-MtrC, N-terminal-truncated (Δ1–34) MtrC, His-tagged (domain or fragment, N. gonorrhoeae FA19, UniProt P43505 35-412, looked up)
# chain: GQPAGREAPAPVVGVVTVHPQTVALTVELPGRLESLRTADVRAQVGGIIQKRLFQEGSYVRAGQPLYQIDSSTYEAGLESARAQLATAQATLAKADADLARYKPLVSADAISKQEYDAAVTAKRSAEASVKAAQAAIKSAGINLNRSRITAPISGFIGQSKVSEGTLLNAGDTTVLATIRQTNPMYVNVTQSASEVMKLRRQIAEGKLLAADGAIAVGIKFDDGTVYPEKGRLLFADPTVDESTGQITLRAAVSNDQNILMPGLYVRVLMDQVAADNAFIVPQQAVTRGAKDTVMIVNAQGGMEPREVTVAQQQGTNWIVTSGLKDGDKVVVEGISIAGMTGAKKVTPKEWAPSENQAAAPQAGVQTASEAKPASEAK
# Assays:
# [1] = biological target: MtrE, His-tagged (wild type) (N. gonorrhoeae FA19) (UniProt Q51006); test: native MS
# [2] = biological target: MtrE, His-tagged (wild type) (N. gonorrhoeae FA19) (UniProt Q51006); test: ITC
# [3] = biological target: MtrE E434K, His-tagged (N. gonorrhoeae FA19) (UniProt Q51006); test: ITC
# MtrD, His-tagged = biological target: T1, MtrD, His-tagged; test: ITC
molecule,measurement,setting,value
"MtrE, His-tagged (wild type) (from UniProt Q51006 1-467) (natural protein)",stoichiometry N,[1],3
B1,Ka1 (site 1 of a two-site fit),[2],460000 M⁻¹
same,Ka2 (site 2 of a two-site fit),[2],3200 M⁻¹
same,Kd of the first (high-affinity) site of a two-site fit,[2],2200 nM
same,dH1 (site 1 of a two-site fit),[2],-12 kcal/mol
same,dH2 (site 2 of a two-site fit),[2],-62 kcal/mol
same,dH of the first site of a two-site fit,[2],-11 kcal/mol
same,Ka,[3],8.2e+06 M⁻¹
same,Kd,[3],130 nM
same,dH,[3],-4.12 kcal/mol
B2,Kd,[2],9800 nM
same,dH,[2],-6.84 kcal/mol
same,Ka,"MtrD, His-tagged",1.2e+06 M⁻¹
same,Kd,"MtrD, His-tagged",800 ± 700 nM
same,dH,"MtrD, His-tagged",1.41 ± 0.318 kcal/mol

# Reference: article PMC3037662 (The Journal of Biological Chemistry, 2010)
